The results in this text go back to US20030157054A1 (Merck KGaA, published 2003).

Experiment [1] concerns the target soluble human EpCAM-murine Fc (KSA-muFc) (human) (UniProt P16422). The experiment can be described thus: ELISA on plates coated with KSA-muFc; Group 1. On the technique in general: An ELISA detects its analyte on a solid surface through an enzyme-linked reagent.
Experiment [2] shares this target. Kind of experiment: ELISA on plates coated with KSA-muFc; Group 2, normalized to VK8/VH7.
The target is the same in experiment [3]. Kind of experiment: SPR (Biacore), EpCAM-muFc coupled to CM5 chip, fusion protein in solution. A general note: In SPR one partner is held on a chip, and binding of the other changes the refractive index at the surface.
For experiment [4] the target is unchanged. Kind of experiment: ELISA on plates coated with KSA-muFc; Group 3, normalized to VK8/VH7-IL2.
For experiment [5] the target is unchanged. The experiment can be described thus: EpCAM binding assay (ELISA on KSA-muFc).
Experiment [6] has the same target. Kind of experiment: ELISA on plates coated with KSA-muFc; Group 2, control to which the group is normalized.
In experiment [7] the target is T1, human epithelial cell adhesion molecule (EpCAM) on the cell surface (human, UniProt P16422 24-314).
T1 construct: whole, on cells; also called KS antigen; KSA
T1 sequence (looked up): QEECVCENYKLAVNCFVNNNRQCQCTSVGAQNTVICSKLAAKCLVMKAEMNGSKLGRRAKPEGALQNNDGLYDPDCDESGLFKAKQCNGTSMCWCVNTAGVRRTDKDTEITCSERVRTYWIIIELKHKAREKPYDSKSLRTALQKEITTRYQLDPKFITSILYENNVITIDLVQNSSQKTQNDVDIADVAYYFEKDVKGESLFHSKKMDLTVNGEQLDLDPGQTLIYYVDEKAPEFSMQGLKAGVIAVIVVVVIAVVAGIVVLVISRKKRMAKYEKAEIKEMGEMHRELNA
The experiment can be described thus: 125I-labelled protein on EpCAM-positive PC-3 tumor cells, saturation binding with Scatchard analysis. The protocol: Purified KS-1/4 antibodies were iodinated with ¹²⁵I using standard techniques, and increasing concentrations of labeled protein were incubated with the EpCAM-positive cell line PC-3. Saturation binding curves were generated and the dissociation constants were determined by Scatchard analysis.
In addition, the binding of iodinated VK8/VH7 and VK8/VH7-IL2 to EpCAM expressed on the surface of PC-3 tumor cells was compared to binding of iodinated VK0/VH0-IL2, using methods described in Example 1F. Within experimental error, essentially identical binding affinities were found for VK8/VH7 and VK0/VH0, and for VK8/VH7-IL2 and VK0/VH0-IL2.

Turning to VK0/VH0 (Hybridoma chKS-1/4) (antibody), the Relative binding (fold-increase in protein concentration required to reach an equivalent level of binding) in experiment [1] was 1 fold.

B1: VK1/VH1 (antibody, V domains shown)
VH: QIQLVQSGPELKKPGSSVKISCKASGYTFTNYGMNWVRQAPGKGLKWMGWINTYTGEPTYADDFKGRFTITAETSTSTLYLQLNNLRSEDTATYFCVRFMSKGDYWGQGTTVTVSS
VL: QIVLTQSPASLAVSPGQRATITCSASSSVSYILWYQQKPGQPPKPWIFDTSNLASGFPSRFSGSGSGTSYTLTINSLEAEDAATYYCHQRSGYPYTFGGGTKVEIK
Consider B1, for which, in experiment [2], the Relative binding (fold-increase in protein concentration required to reach an equivalent level of binding) is 2 fold.

B2: VK1/VH2-IL2 (protein)
VL: QIVLTQSPASLAVSPGQRATITCSASSSVSYILWYQQKPGQPPKPWIFDTSNLASGFPSRFSGSGSGTSYTLTINSLEAEDAATYYCHQRSGYPYTFGGGTKVEIK
VH: QIQLVQSGPELKKPGSSVKISCKASGYTFTNYGMNWVRQAPGKGLKWMGWINTYTGEPTYADDFKGRFTITAETSTSTLYLQLNNLRSEDTATYFCVRFISKGDYWGQGTTVTVSS
As for B2, the Relative binding (fold-increase in protein concentration required to reach an equivalent level of binding) in experiment [2] worked out at 1.5 fold. Also, in experiment [3], the koff (commonly the first-order rate constant of dissociation) was determined as 0.00053 s⁻¹ and the on-rate constant (kon) (commonly a measure of how fast the partners come together) was 170000 M⁻¹ s⁻¹.

B3: VK1/VH2.4-IL2 (protein)
VL: QIVLTQSPASLAVSPGQRATITCSASSSVSYILWYQQKPGQPPKPWIFDTSNLASGFPSRFSGSGSGTSYTLTINSLEAEDAATYYCHQRSGYPYTFGGGTKVEIK
VH: QIQLVQSGPELKKPGSSVKISCKASGYTFTNYGMNWVRQAPGKGLKWMGWINTYTGEPTYADDFKGRFTITAETSTSTLYLQLNNLRSEDTATYFCVRFISKTGDYWGQGTTVTVSS
Turning to B3, the Relative binding (fold-increase in protein concentration required to reach an equivalent level of binding) in experiment [4] worked out at 3 fold.

B4: VK1/VH2.2-IL2 (protein)
VL: QIVLTQSPASLAVSPGQRATITCSASSSVSYILWYQQKPGQPPKPWIFDTSNLASGFPSRFSGSGSGTSYTLTINSLEAEDAATYYCHQRSGYPYTFGGGTKVEIK
VH: QIQLVQSGPELKKPGSSVKISCKASGYTFTNYGMNWVRQAPGKGLKWMGWINTYTGEPTYADDFKGRFTITAETSTSTLYLQLNNLRSEDTATYFCVRFIVSKGDYWGQGTTVTVSS
Regarding B4, the Relative binding (fold-increase in protein concentration required to reach an equivalent level of binding) in experiment [4] was more than 10 fold.

B5: VK1/VH1-IL2 (protein)
VL: QIVLTQSPASLAVSPGQRATITCSASSSVSYILWYQQKPGQPPKPWIFDTSNLASGFPSRFSGSGSGTSYTLTINSLEAEDAATYYCHQRSGYPYTFGGGTKVEIK
VH: QIQLVQSGPELKKPGSSVKISCKASGYTFTNYGMNWVRQAPGKGLKWMGWINTYTGEPTYADDFKGRFTITAETSTSTLYLQLNNLRSEDTATYFCVRFMSKGDYWGQGTTVTVSS
Consider B5, for which the Relative binding (fold-increase in protein concentration required to reach an equivalent level of binding) in experiment [2] was found to be 5 fold. For the same molecule, the Relative binding (fold-increase in protein concentration required to reach an equivalent level of binding) in experiment [4] stood at 2 fold. In experiment [3], this molecule returned a dissociation rate constant (koff) of 0.0022 s⁻¹ and a kon of 280000 M⁻¹ s⁻¹.

B6: VK1/VH2.5-IL2 (protein)
VL: QIVLTQSPASLAVSPGQRATITCSASSSVSYILWYQQKPGQPPKPWIFDTSNLASGFPSRFSGSGSGTSYTLTINSLEAEDAATYYCHQRSGYPYTFGGGTKVEIK
VH: QIQLVQSGPELKKPGSSVKISCKASGYTFTNYGMNWVRQAPGKGLKWMGWINTYTGEPTYADDFKGRFTITAETSTSTLYLQLNNLRSEDTATYFCVRFISKGDYWGTGTTVTVSS
With B6, the Relative binding (fold-increase in protein concentration required to reach an equivalent level of binding) in experiment [2] lay in the range of 3 to 4 fold.

B7: VK1/VH2.1-IL2 (protein)
VL: QIVLTQSPASLAVSPGQRATITCSASSSVSYILWYQQKPGQPPKPWIFDTSNLASGFPSRFSGSGSGTSYTLTINSLEAEDAATYYCHQRSGYPYTFGGGTKVEIK
VH: QIQLVQSGPELKKPGSSVKISCKASGYTFTNYGMNWVRQAPGKGLKWMGWINTYTGEPTYADDFKGRFTITAETSTSTLYLQLNNLRSEDTATYFCVRFIISKGDYWGQGTTVTVSS
With B7, the Relative binding (fold-increase in protein concentration required to reach an equivalent level of binding) in experiment [4] is more than 10 fold.

B8: VK1/VH2 (antibody, V domains shown)
VH: QIQLVQSGPELKKPGSSVKISCKASGYTFTNYGMNWVRQAPGKGLKWMGWINTYTGEPTYADDFKGRFTITAETSTSTLYLQLNNLRSEDTATYFCVRFISKGDYWGQGTTVTVSS
VL: QIVLTQSPASLAVSPGQRATITCSASSSVSYILWYQQKPGQPPKPWIFDTSNLASGFPSRFSGSGSGTSYTLTINSLEAEDAATYYCHQRSGYPYTFGGGTKVEIK
For the molecule B8, the Relative binding (fold-increase in protein concentration required to reach an equivalent level of binding) in experiment [2] lay in the range of 1 to 2 fold.

B9: VK1/VH2.3-IL2 (protein)
VL: QIVLTQSPASLAVSPGQRATITCSASSSVSYILWYQQKPGQPPKPWIFDTSNLASGFPSRFSGSGSGTSYTLTINSLEAEDAATYYCHQRSGYPYTFGGGTKVEIK
VH: QIQLVQSGPELKKPGSSVKISCKASGYTFTNYGMNWVRQAPGKGLKWMGWINTYTGEPTYADDFKGRFTITAETSTSTLYLQLNNLRSEDTATYFCVRFISAKGDYWGQGTTVTVSS
With B9, the Relative binding (fold-increase in protein concentration required to reach an equivalent level of binding) in experiment [4] was found to be 7 fold.

B10: VK6/VH6 (Construct 1) (antibody, V domains shown)
VH: QVQLVQSGAEVKKPGESVKISCKASGYTFTNYGMNWVRQAPGKGLEWMGWINTYTGEPTYAQKFQGRVTISLDTSTSTAYLQLSSLRAEDTAVYFCVRFISKGDYWGQGTSVTVSS
VL: EIVLTQSPATLSLSPGERVTLTCSASSSVSYMLWYQQKPGQAPKLLIFDTSNLASGIPARFSGSGSGTDYTLTISSLEPEDFAVYYCHQRSGYPYTFGGGTKLEIK
In turn, B10 returned a fold less active in an EpCAM binding assay in experiment [5] of more than 10 fold.

B11: VK8/VH7 (Construct 3) (antibody, V domains shown)
VH: QIQLVQSGAEVKKPGETVKISCKASGYTFTNYGMNWVKQTPGKGLKWMGWINTYTGEPTYADDFKGRFAFSLETSTSTAFLQINNLRSEDTATYFCVRFISKGDYWGQGTSVTVSS
VL: EIVLTQSPATLSLSPGERVTLTCSASSSVSYMLWYQQKPGSSPKPWIFDTSNLASGFPARFSGSGSGTSYSLIISSMEAEDAATYYCHQRSGYPYTFGGGTKLEIK
notes: Intact antibody with human constant regions (pdHL7 vector); also called KS antibody (Construct 3)
With B11, in experiment [6], the Relative binding (fold-increase in protein concentration required to reach an equivalent level of binding) was found to be 1 fold. Moreover, in experiment [7], the binding result is on record as “binds”.

B12: VK0/VH'369 ('369 chKS-1/4) (antibody, V domains shown)
VH: QIQLVQSGPELKKPGETVKISCKASGYTFTNYGMNWVKQTPGKGLKWMGWINTYTGEPTYADDFKGRFAFSLETSASTAFLQIQQPQNMRTMATYFCVRFISKGDYWGQGTSVTVSS
VL: QILLTQSPAIMSASPGEKVTMTCSASSSVSYMLWYQQKPGSSPKPWIFDTSNLASGFPARFSGSGSGTSYSLIISSMEAEDAATYYCHQRSGYPYTFGGGTKLEIK
On to B12, for which, in experiment [1], the Relative binding (fold-increase in protein concentration required to reach an equivalent level of binding) is more than 30 fold.

B13: VK0/VH1 (antibody, V domains shown)
VH: QIQLVQSGPELKKPGSSVKISCKASGYTFTNYGMNWVRQAPGKGLKWMGWINTYTGEPTYADDFKGRFTITAETSTSTLYLQLNNLRSEDTATYFCVRFMSKGDYWGQGTTVTVSS
VL: QILLTQSPAIMSASPGEKVTMTCSASSSVSYMLWYQQKPGSSPKPWIFDTSNLASGFPARFSGSGSGTSYSLIISSMEAEDAATYYCHQRSGYPYTFGGGTKLEIK
With B13, in experiment [2], the Relative binding (fold-increase in protein concentration required to reach an equivalent level of binding) stood at 8 fold.

B14: VK1/VH7 (antibody, V domains shown)
VH: QIQLVQSGAEVKKPGETVKISCKASGYTFTNYGMNWVKQTPGKGLKWMGWINTYTGEPTYADDFKGRFAFSLETSTSTAFLQINNLRSEDTATYFCVRFISKGDYWGQGTSVTVSS
VL: QIVLTQSPASLAVSPGQRATITCSASSSVSYILWYQQKPGQPPKPWIFDTSNLASGFPSRFSGSGSGTSYTLTINSLEAEDAATYYCHQRSGYPYTFGGGTKVEIK
For B14, the Relative binding (fold-increase in protein concentration required to reach an equivalent level of binding) in experiment [2] worked out at 1 fold.
